The text below walks through data of patent US8309523 (VIB VZW, dated 2012).

The target of assay [1] is T1, p76 fragment of MALT1 (Avi-tagged expression construct) (human, UniProt Q9UDY8 150-824, Avi-tag biotinylated in vivo by co-expressed BirA).
T1 construct: domain: p76 cleavage fragment; Lacks the N-terminal death domain; also called MALT1 p76; 76 kDa C-terminal fragment
T1 sequence (looked up): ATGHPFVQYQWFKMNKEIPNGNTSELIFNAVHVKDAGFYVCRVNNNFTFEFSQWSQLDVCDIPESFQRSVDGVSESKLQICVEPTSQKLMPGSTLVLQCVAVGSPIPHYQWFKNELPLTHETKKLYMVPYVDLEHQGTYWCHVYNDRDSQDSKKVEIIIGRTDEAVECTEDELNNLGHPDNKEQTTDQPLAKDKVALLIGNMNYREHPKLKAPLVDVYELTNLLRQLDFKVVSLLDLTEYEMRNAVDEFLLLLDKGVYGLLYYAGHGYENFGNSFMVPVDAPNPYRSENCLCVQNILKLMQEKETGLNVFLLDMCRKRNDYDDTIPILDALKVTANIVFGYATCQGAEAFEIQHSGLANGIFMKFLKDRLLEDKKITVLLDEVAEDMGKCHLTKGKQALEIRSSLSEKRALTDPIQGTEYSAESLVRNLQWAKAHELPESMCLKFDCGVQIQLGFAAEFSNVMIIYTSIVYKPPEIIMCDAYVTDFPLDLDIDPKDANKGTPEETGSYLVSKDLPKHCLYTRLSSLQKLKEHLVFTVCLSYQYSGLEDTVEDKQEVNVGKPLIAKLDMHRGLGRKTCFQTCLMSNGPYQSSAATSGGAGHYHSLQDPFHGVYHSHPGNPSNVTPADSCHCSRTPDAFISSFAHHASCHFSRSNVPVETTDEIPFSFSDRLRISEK
The assay is described as follows: bio-IP from HEK293T cells, anti-BCL10 immunoblot. The source says: (§1) FIG. 5: p76 activates NFκB via TRAF6. […] Panel B) TRAF6 mediates NFκB signaling by p76. Top: NFκB-reporter assays of HEK293T cells transiently expressing MALT1, p76 and mutants or MALT1-C. Bottom: MALT1, p76 or MALT1-C, transiently expressed in HEK293T cells, were purified via bio-IPs and immunoblotted with anti-MALT1 (to show equal expression), anti-TRAF6 and anti-BCL10. Panel C) p76 induces polyubiquitination of IKKγ. Immunoblot analysis of bio-IP and IKKγ-IP of 293T cells transfected with pcD-F-IKKγ and pcd-HA-Ub in combination with indicated Avi-tagged MALT1 constructs. Panel D) BCL10 is not involved in NFκB signaling by p76. NFκB reporter assays of HEK-293T cells transfected with siRNA duplexes against MALT1, BCL10 or GFP (as control) followed by transient transfection with p76. The expression levels were determined by immunoblot with anti-MALT1 and anti-BCL10. NFκB-dependent luciferase activity […] is shown as fold induction of vector-transfected cells and represents the mean+/−S.D. of three independent experiments.
In general terms: In western blotting, separated proteins are transferred to a membrane and probed.

Assay [2] has as its target T2, MALT1 (wild type, Flag- and Avi-tagged bio-construct) (human, UniProt Q9UDY8 1-824, Avi-tag biotinylated in vivo by co-expressed BirA).
T2 construct: also called paracaspase; bio-IP purified MALT1
T2 sequence (looked up): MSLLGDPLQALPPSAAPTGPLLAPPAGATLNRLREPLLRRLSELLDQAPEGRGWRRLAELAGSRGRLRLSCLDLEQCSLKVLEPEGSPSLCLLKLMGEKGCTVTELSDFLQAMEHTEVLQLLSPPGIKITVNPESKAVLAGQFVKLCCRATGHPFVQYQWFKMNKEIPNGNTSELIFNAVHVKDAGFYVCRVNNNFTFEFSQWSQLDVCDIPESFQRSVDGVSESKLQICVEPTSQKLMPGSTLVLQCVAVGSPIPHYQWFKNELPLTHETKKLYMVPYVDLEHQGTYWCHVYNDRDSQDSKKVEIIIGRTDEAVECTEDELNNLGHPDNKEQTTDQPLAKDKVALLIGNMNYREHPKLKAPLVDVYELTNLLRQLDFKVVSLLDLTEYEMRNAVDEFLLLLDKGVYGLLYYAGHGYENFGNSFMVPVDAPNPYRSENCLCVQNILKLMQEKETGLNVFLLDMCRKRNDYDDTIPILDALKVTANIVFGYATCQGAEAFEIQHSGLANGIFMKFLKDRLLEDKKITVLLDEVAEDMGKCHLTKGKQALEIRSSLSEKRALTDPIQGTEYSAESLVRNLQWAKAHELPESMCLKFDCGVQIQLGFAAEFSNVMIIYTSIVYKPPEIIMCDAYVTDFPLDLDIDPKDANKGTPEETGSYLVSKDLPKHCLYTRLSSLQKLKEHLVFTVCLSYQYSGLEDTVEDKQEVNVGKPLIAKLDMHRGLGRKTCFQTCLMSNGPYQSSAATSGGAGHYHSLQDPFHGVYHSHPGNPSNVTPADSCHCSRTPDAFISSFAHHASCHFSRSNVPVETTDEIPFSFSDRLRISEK
The assay is described as follows: bio-IP from HEK293T cells, anti-TRAF6 immunoblot.
From the text: as §1
NFκB activation by MALT1 requires TRAF6 binding via two distinct sites (19), which are both present in the p76 cleavage fragment. Mutation of one TRAF6 binding site, either E313A/E316A (T6Ig-m) or E806A (T6C-m), abolished the potential of p76 to activate NFκB signaling in 293T cells (FIG. 5, Panel B). […] Furthermore, NFκB activation by p76 in 293T cells was associated with increased polyubiquitination of IKKγ (FIG. 5, Panel C).

B1: BCL10 (other, UniProt O95999 1-233, looked up)
chain: MEPTAPSLTEEDLTEVKKDALENLRVYLCEKIIAERHFDHLRAKKILSREDTEEISCRTSSRKRAGKLLDYLQENPKGLDTLVESIRREKTQNFLIQKITDEVLKLRNIKLEHLKGLKCSSCEPFPDGATNNLSRSNSDESNFSEKLRASTVMYHPEGESSTTPFFSTNSSLNLPVLEVGRTENTIFSSTTLPRPGDPGAPPLPPDLQLEEEGTCANSSEMFLPLRSRTVSRQ
notes: Co-precipitated from lysates of human cell lines
On to B1, for which the binding result in assay [1] was “no binding”.

B2: TRAF6 (other, UniProt Q9Y4K3 1-522, looked up)
chain: MSLLNCENSCGSSQSESDCCVAMASSCSAVTKDDSVGGTASTGNLSSSFMEEIQGYDVEFDPPLESKYECPICLMALREAVQTPCGHRFCKACIIKSIRDAGHKCPVDNEILLENQLFPDNFAKREILSLMVKCPNEGCLHKMELRHLEDHQAHCEFALMDCPQCQRPFQKFHINIHILKDCPRRQVSCDNCAASMAFEDKEIHDQNCPLANVICEYCNTILIREQMPNHYDLDCPTAPIPCTFSTFGCHEKMQRNHLARHLQENTQSHMRMLAQAVHSLSVIPDSGYISEVRNFQETIHQLEGRLVRQDHQIRELTAKMETQSMYVSELKRTIRTLEDKVAEIEAQQCNGIYIWKIGNFGMHLKCQEEEKPVVIHSPGFYTGKPGYKLCMRLHLQLPTAQRCANYISLFVHTMQGEYDSHLPWPFQGTIRLTILDQSEAPVRQNHEEIMDAKPELLAFQRPTIPRNPKGFGYVTFMHLEALRQRTFIKDDTLLVRCEVSTRFDMGSLRREGFQPRSTDAGV
notes: as for B1
As for B2, in assay [2], the binding result is on record as “binds”.
